Holding throughout (settings): both partners purified
In assay [1] the target is T1, furin-resistant mouse proNGF (mouse, UniProt P01139 122-241).
T1 chain: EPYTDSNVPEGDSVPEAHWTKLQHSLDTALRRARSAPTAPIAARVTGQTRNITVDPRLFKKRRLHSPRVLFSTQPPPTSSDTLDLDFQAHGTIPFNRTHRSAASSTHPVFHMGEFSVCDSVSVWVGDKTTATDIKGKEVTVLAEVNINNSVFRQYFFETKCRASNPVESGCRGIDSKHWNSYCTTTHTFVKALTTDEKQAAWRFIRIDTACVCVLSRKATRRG
Put plainly: SPR; equilibrium binding, IBIS MX96; NGF, proNGF and proBDNF amine-coupled, s-sortilin as analyte; 25 mM MES pH 5.0, 150 mM NaCl, 0.005% Tween 20, 25 °C; 1:1 Langmuir model.

Assay [2] addresses T2, Nerve Growth Factor (NGF), mouse (mouse, UniProt P01139 122-241).
T2 construct: Mouse NGF purified from submaxillary glands; the mature neurotrophin as against proNGF; also called Mouse NGF; source: bought: Biorad (purified from submaxillary glands)
The assay is described as above.

The target in assay [3] is T1, furin-resistant mouse proNGF. Put plainly: SPR; equilibrium binding, IBIS MX96; NGF, proNGF and proBDNF amine-coupled, s-sortilin as analyte; 25 mM HEPES pH 7.4, 150 mM NaCl, 0.005% Tween 20, 25 °C; 1:1 Langmuir model.
Assay [4] deals with T2, Nerve Growth Factor (NGF), mouse. Described as above.
Assay [5] concerns the target T3, Mouse s-sortilin A464E, native glycans (mouse).
T3 construct: Sortilin (Sort1), mouse, luminal segment, residues 1-722 with A464E; secreted with a cystatin signal peptide; Same limits as Dm1; also called A464E s-sortilin; source: HEK293-E, secreted, purified (Ni-NTA, SEC)
Put plainly: SPR; MX96 (IBIS); NGF, proNGF and proBDNF amine-coupled to a P-COOH SensEye sensor, s-sortilin flowed over as analyte; 25 mM MES pH 5.0, 150 mM NaCl, 0.005% Tween 20, 25 °C; equilibrium binding, 1:1 Langmuir model.

This note sets out measurements from article PMC5700061 (Nature Communications, 2017).

As a reminder, the Kd is the concentration at which binding is half-saturated.

B1: s-sortilin A464E (dimerization interface mutant of the mouse sortilin luminal segment) (domain or fragment)
chain: RRGAPAEDQDCGRLPDFIAKLTNNTHQHVFDDLSGSVSLSWVGDSTGVILVLTTFQVPLVIVSFGQSKLYRSEDYGKNFKDITNLINNTFIRTEFGMAIGPENSGKVILTAEVSGGSRGGRVFRSSDFAKNFVQTDLPFHPLTQMMYSPQNSDYLLALSTENGLWVSKNFGEKWEEIHKAVCLAKWGPNNIIFFTTHVNGSCKADLGALELWRTSDLGKTFKTIGVKIYSFGLGGRFLFASVMADKDTTRRIHVSTDQGDTWSMAQLPSVGQEQFYSILAANEDMVFMHVDEPGDTGFGTIFTSDDRGIVYSKSLDRHLYTTTGGETDFTNVTSLRGVYITSTLSEDNSIQSMITFDQGGRWEHLRKPENSKCDATAKNKNECSLHIHASYSISQKLNVPMAPLSEPNAVGIVIAHGSVGDEISVMVPDVYISDDGGYSWAKMLEGPHYYTILDSGGIIVAIEHSNRPINVIKFSTDEGQCWQSYVFTQEPIYFTGLASEPGARSMNISIWGFTESFITRQWVSYTVDFKDILERNCEEDDYTTWLAHSTDPGDYKDGCILGYKEQFLRLRKSSVCQNGRDYVVAKQPSVCPCSLEDFLCDFGYFRPENASECVEQPELKGHELEFCLYGKEEHLTTNGYRKIPGDKCQGGMNPAREVKDLKKKCTSNFLNPTKQNSKSN
modifications: native glycans (HEK293-E)
In the case of B1, the “fold reduction of binding at pH 5.0 against pH 7.4” value in assay [1] and in assay [2] was 2 fold in each case. In addition, the Kd in assay [3] worked out at 810 nM; in assay [4] it was 320 nM.

B2: Furin-resistant mouse proNGF (ligand)
chain: EPYTDSNVPEGDSVPEAHWTKLQHSLDTALAAARSAPTAPIAARVTGQTRNITVDPRLFKKAALHSPRVLFSTQPPPTSSDTLDLDFQAHGTIPFNRTHRSAASSTHPVFHMGEFSVCDSVSVWVGDKTTATDIKGKEVTVLAEVNINNSVFRQYFFETKCRASNPVESGCRGIDSKHWNSYCTTTHTFVKALTTDEKQAAWRFIRIDTACVCVLSRKATRRG
Take B2: the Kd in assay [5] was 2280 ± 260 nM.
